Results taken from the DeepSol protein solubility set.

Experiment: soluble on expression in E. coli; label from the status in PepcDB or PDB records

Sequence	soluble on expression in E. coli
MGSDKIHHHHHHMEKSIQDTIHGVIKLEDWMVEIVDTPQFQRLRRINQLGFANLVYPGANHTRFEHSLGVMHVTRILQERMGFDDVVVAAALLHDVGHAPFSHGSERLLEKYASYNHETISKVVRGELKDVLKNLGFRISEIEAIVTGKRRSVVNGEIDADRMDYLVRDSHYTGVAYGVFDIYRLIDKIKFDGAVVIEQGGVKAAESLLISRFLMYPTVYFHHVCRIARKMYERAMERIIEAGFEAENLLEMDDVDAMMLLKEKERETYDRLNNRRLFKRAIYVSRRSLDFREVMRTSERRAEREVAEMAGVDERYVIVDIPPVEEMRESGVMVDTESGLKPLEEVSPLVKALKDAAVENWRLGVYTDRRFVDKVGKAAADYFGIEKVVQKSLDEIFPQ	not soluble
MSLNEPVMNKKHFADNNFEEFQRIIRAKLENFKDRIELIEELLSKYHPTRLKEYTKDGIIYSKQCEFYNFLVGMNEAPFICNRKDLYLKEKMHGGVKEVYFANKHGKILNDDLSEKYFSAIEISEYAPKSQSDLFDKINALDSEFIFMHAYSPKNSQVLKDKLAFTSRRIIISGGSKEQGMTLGCLSELVGNGDITLGSYGNSLVLFADSFEKMKQSVKECVSSLNAKGFLANAATFSMENYFFAKHCSFITLPFIFDVTSNNFADFIAMRAMSFDGKEDNNAWGNSVMTLKSEINSPFYLNFHMPTDEGHHHHHH	not soluble
MNDATPDQLRTGPSRETPRFQQIVQDIKRRIADGSLSEHAALPSERRIAEETGISRMTARRALDALEAEGLVYSADRRGRFVSPKRVSYDVSNLVSFVADAESRGTALGIEVIRAQEGKADPALAARLELEPGAAIHEYTRLFRQDGHAIFVETEYVDARRCPDFLSHDLHQSTTRLLESQYDLVARTGDIVIRMRGAHPEETHLLGLAQSQSGIELTQVIRDASGRPFCFGRQFWRGEMAEFSARAIVGGSIHG	not soluble
MPNILYKIDNQYPYFTKNEKKIAQFILNYPHKVVNMTSQEIANQLETSSTSIIRLSKKVTPGGFNELKTRLSKFLPKEVTQYNVELVDNESTISLKNKLHSRSKAAL	soluble
MPKIILVSHSKEIASGTKSLLKQMAGDVDIIPIGGLPDGSIGTSFDIIQEVLTKLEDDALCFYDIGSSEMNVDMAIEMYDGNHRVLKVDAPIVEGSFIAAVKLSIGGSIDDALAEIKQSFLEHHHHHH	soluble
MEIEDGFYLIDDSNHDEDLDFSDFPWLDPDHPLFFPATQANNSKGSTRWDAVNKFSVENWYPHLRKHTFKSHFITLNYNDIHYLMGNIPPDYDSSKLESIFNKILSEFNNKEVFMRLSTRSPKDSKFLFEEASTIMSKDFVYWNENDNKHQQLVSFVASMLKAMKIKSGRKIIETIAQSPRVYNDLLALVSSSNQSDCTTNVILREWHDIRPDHEFRVFVSRRHRKESIVTAISQYFHFLYFDKSPADCFNFLDEEDKKAVIKKFENYVLKSVDPDVAKFLNFSSEQDDDESSDCIREYIVDLALIPVSQYHGEITDENIIEIGANTYVMVVIELNPFAPAATGSGLEHHHHHH	not soluble
MGSDKIHHHHHHMDFIEVYPNAIPDDLCDRLILAFEKHSGVVDGQTGNGVDLEKKISRDLTLDNFTDLQPLKNELLSYTLKGTADYFSQYAMALMGAVAVSVSDEQGQAVTLTPSNFERLGKPRAEALVKYLYRSGSINIQKYQKNKGGYPHWHSEQFPQLSHNEALHRVVLYMFYLNDVEEGGETEFYYQQRKISPKKGTMVIAPAGFTHSHRGNMPISNDKYIATSWVMFNRAEQLYAVYA	not soluble
MSALDPQASARVARTPDAEPEAVDASAAGESAGLIARLGRLFERDRLPPPADLAQLFEARLTDVRANKLAQAWRLAYEQADGKRRRAMLGGLAQVGAGMQGDGAQGTRLFKRFNALPDGLRFLVALRADMLRWRKQVAGLQALDKELEALLSAWFDVGLLELRPLTWDSPASLLEKLILYEAVHEIRSWDDLRHRVAGDRRCYAYFHPQMPDVPLIFVEVAFSAQMADNVQALLDTSAPPQDLDKARWAIFYSISNTQPGLRGISFGNFLLKRVIDRLLQELPKLKFFATLSPIPGFADWLSRLDAQEVEQAVRDKARTRSGAPDGARWVARLARAATGKPSEVVQRAGLRLAARYLQAMRAGQPLDPVARFHLGNGARIERLNWAADTSAKGLAQSCGMMVNYLYELGDLDGNLARLNEGKPQVSRGIARLGLEHHHHHH	not soluble
